This data set concerns the target T1, CasEnd-5 (synthetic construct).
T1 chain: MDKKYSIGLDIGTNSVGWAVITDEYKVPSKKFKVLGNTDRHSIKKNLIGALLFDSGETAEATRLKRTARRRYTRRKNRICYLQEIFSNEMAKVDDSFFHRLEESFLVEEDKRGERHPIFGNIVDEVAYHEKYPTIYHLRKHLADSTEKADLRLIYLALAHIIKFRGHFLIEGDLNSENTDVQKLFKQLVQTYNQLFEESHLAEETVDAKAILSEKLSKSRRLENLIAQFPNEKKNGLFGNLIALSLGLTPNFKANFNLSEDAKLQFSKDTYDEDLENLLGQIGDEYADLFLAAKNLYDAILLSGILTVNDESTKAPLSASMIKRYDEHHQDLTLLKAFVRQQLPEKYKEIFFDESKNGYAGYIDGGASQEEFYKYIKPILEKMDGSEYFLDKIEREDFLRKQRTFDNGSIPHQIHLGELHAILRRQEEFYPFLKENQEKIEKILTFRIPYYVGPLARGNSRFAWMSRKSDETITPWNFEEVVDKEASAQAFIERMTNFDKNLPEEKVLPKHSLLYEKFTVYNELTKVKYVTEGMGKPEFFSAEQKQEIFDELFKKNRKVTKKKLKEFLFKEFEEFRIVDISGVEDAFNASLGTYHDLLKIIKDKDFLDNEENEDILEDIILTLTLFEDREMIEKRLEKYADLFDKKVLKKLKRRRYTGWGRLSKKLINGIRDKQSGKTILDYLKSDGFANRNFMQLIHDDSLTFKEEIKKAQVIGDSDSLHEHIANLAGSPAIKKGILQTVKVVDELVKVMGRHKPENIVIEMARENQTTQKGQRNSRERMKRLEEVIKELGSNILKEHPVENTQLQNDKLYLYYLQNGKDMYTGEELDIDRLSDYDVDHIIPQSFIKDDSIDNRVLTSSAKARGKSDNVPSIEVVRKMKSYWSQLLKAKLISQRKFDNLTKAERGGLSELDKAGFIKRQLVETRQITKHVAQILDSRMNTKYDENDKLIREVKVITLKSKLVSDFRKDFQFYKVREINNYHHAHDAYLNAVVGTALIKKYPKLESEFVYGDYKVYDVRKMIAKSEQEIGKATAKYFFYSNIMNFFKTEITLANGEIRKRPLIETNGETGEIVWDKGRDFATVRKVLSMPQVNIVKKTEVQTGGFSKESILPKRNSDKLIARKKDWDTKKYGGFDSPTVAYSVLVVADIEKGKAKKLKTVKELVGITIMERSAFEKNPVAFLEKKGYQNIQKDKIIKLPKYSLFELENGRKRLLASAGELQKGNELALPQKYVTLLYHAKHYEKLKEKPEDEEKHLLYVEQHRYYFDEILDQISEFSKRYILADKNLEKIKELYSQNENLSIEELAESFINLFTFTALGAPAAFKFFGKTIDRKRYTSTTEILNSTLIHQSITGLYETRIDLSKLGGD
Kind of data set: cell_activity; +++; HEK293T; PAM not stated. An outline of the steps:
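Editing activity was scored as the fraction of GFP+ cells on day 4 by flow cytometry. BFP-expressing HEK293T cells (250,000) received by nucleofection 200 ng plasmid for the RT-Cas fusion protein and 200 ng template RNA plasmid designed to convert BFP to GFP.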

B1: BFP-to-GFP template RNA ; BFP reporter protospacer (ssRNA ; dsDNA)
RNA: GCCGAAGCACUGCACGCCGUGUUUUAGAGCUAGAAAUAGCAAGUUAAAAUAAGGCUAGUCCGUUAUCAACUUGAAAAAGUGGCACCGAGUCGGUGCACCCUGACGUACGGCGUGCAGUGCUU
DNA 1: GCCGAAGCACTGCACGCCGT
DNA 2: ACGGCGTGCAGTGCTTCGGC
With B1, the activity is ≥ 100 % of reference.

(Values after patent US20250092426, “CAS ENDONUCLEASES AND RELATED METHODS” (Flagship Pioneering Innovations VII, LLC, published 2025).)
